In patent publication US20240200091A1, “USE OF PROTOPORPHYRINOGEN OXIDASE” (BEIJING DABEINONG BIOTECHNOLOGY CO., LTD., priority 2021, published 2024):

Legend:
Format in all cases: in vivo
[1] = system: Arabidopsis thaliana T1 plants; assay: oxyfluorfen tolerance of transgenic Arabidopsis thaliana T1 plants (spray, grade of pesticide damage); details: 7 DAT, number of plants of 24 per genotype, grades
In short: (§1)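 Read-out: injury grade at 7 DAT from injured vs total leaf area (0 = as water-sprayed; 1 = <10%; 3 = 100%); grades 0–1 were rated highly resistant. Plants were 18-day-old glufosinate-selected PPO-transgenic T1 lines plus controls, n = 24 per genotype. Doses: saflufenacil 25/100, sulfentrazone 450/900, flumioxazin 60/240, oxyfluorfen 180/720 g ai/ha.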

[2] = system: Arabidopsis thaliana T1 plants; assay: saflufenacil tolerance of transgenic Arabidopsis thaliana T1 plants (spray, grade of pesticide damage); details: 7 DAT, number of plants of 24 per genotype, grades
In short: as §1

[3] = system: Arabidopsis thaliana T1 plants; assay: flumioxazin tolerance of transgenic Arabidopsis thaliana T1 plants (spray, grade of pesticide damage); details: 7 DAT, number of plants of 24 per genotype, grades
In short: as §1

[4] = system: Arabidopsis thaliana T1 plants; assay: sulfentrazone tolerance of transgenic Arabidopsis thaliana T1 plants (spray, grade of pesticide damage); details: 7 DAT, number of plants of 24 per genotype, grades
In short: as §1

[5] = system: transgenic soybean plants; assay: oxyfluorfen tolerance of transgenic soybean plants (spray, grade of pesticide damage); details: for The grade of pesticide damage/plant: grade 0 / The grade of pesticide damage/plant: grade 1 / The grade of pesticide damage/plant: grade 2 / The grade of pesticide damage/plant: grade 3: 7 DAT, number of plants of 16 per genotype, grades; for tolerance to oxyfluorfen: soybean
[6] = system: transgenic soybean plants; assay: saflufenacil tolerance of transgenic soybean plants (spray, grade of pesticide damage); details: for The grade of pesticide damage/plant: grade 0 / The grade of pesticide damage/plant: grade 1 / The grade of pesticide damage/plant: grade 2 / The grade of pesticide damage/plant: grade 3: 7 DAT, number of plants of 16 per genotype, grades
[7] = system: transgenic soybean plants; assay: flumioxazin tolerance of transgenic soybean plants (spray, grade of pesticide damage); details: for The grade of pesticide damage/plant: grade 0 / The grade of pesticide damage/plant: grade 1 / The grade of pesticide damage/plant: grade 2 / The grade of pesticide damage/plant: grade 3: 7 DAT, number of plants of 16 per genotype, grades

B1: PPO14A: nucleotide sequence encoding microbial protoporphyrinogen oxidase PPO14 (SEQ ID NO:14), Arabidopsis thaliana/soybean common codon usage bias (nucleic acid)
DNA: ATGTCTAACAAGGCCTTGCTGCTCTATAGTACAAGAGAAGGTCAAACTAAAAAGATTCTTCAGTACATAGACAAAGAGCTTCATGATTACCAATGTGATTATGTCGATCTTCACACAATGCCTATAGAGATTGATTTCTCTGGTTATGATAAAGTTTTGGTAGGGGCGTCCATCCGGTATGGACATTTAAACAAAAAACTTTACAGATTCATCGAGAGGTACAAAGCAGAGTTGAAGGATAATAATGCTGCTTTCTTCTGCGTCAATCTAACCGCAAGGAAAGAACAACAAGGAAAAGATACTCCTGAAGGATCAGCTTATATTCAGACTTTTCTCAAGAAGTCTCCATGGCAGCCAGCATTGATAGGTGTTTTTGCTGGAGCTTTACGTTACCCGAAGTATAGATGGTTTGACAAGATGATGATTCGACTAATCATGACTATGACGGGCGGTGAAACCGACACATCAAAGGAAGTGGAGTATACAAATTGGAAGAAAGTGAGCCTCTTTGTTGAAAACTGGCAAAAGCAGTGA
modifications: The nucleotide sequence of PPO14A
The grade of pesticide damage/plant: grade 0 ([1]; oxyfluorfen 180 g ai/ha (1×)): 24 plant
The grade of pesticide damage/plant: grade 1 ([1]; oxyfluorfen 180 g ai/ha (1×)): 0 plant
The grade of pesticide damage/plant: grade 2 ([1]; oxyfluorfen 180 g ai/ha (1×)): 0 plant
The grade of pesticide damage/plant: grade 3 ([1]; oxyfluorfen 180 g ai/ha (1×)): 0 plant
The grade of pesticide damage/plant: grade 0 ([1]; oxyfluorfen 720 g ai/ha (4×)): 20 plant
The grade of pesticide damage/plant: grade 1 ([1]; oxyfluorfen 720 g ai/ha (4×)): 4 plant
The grade of pesticide damage/plant: grade 2 ([1]; oxyfluorfen 720 g ai/ha (4×)): 0 plant
The grade of pesticide damage/plant: grade 3 ([1]; oxyfluorfen 720 g ai/ha (4×)): 0 plant
The grade of pesticide damage/plant: grade 0 ([2]; saflufenacil 25 g ai/ha (1×)): 24 plant
The grade of pesticide damage/plant: grade 1 ([2]; saflufenacil 25 g ai/ha (1×)): 0 plant
The grade of pesticide damage/plant: grade 2 ([2]; saflufenacil 25 g ai/ha (1×)): 0 plant
The grade of pesticide damage/plant: grade 3 ([2]; saflufenacil 25 g ai/ha (1×)): 0 plant
The grade of pesticide damage/plant: grade 0 ([2]; saflufenacil 100 g ai/ha (4×)): 0 plant
The grade of pesticide damage/plant: grade 1 ([2]; saflufenacil 100 g ai/ha (4×)): 24 plant
The grade of pesticide damage/plant: grade 2 ([2]; saflufenacil 100 g ai/ha (4×)): 0 plant
The grade of pesticide damage/plant: grade 3 ([2]; saflufenacil 100 g ai/ha (4×)): 0 plant
The grade of pesticide damage/plant: grade 0 ([3]; flumioxazin 60 g ai/ha (1×)): 24 plant
The grade of pesticide damage/plant: grade 1 ([3]; flumioxazin 60 g ai/ha (1×)): 0 plant
The grade of pesticide damage/plant: grade 2 ([3]; flumioxazin 60 g ai/ha (1×)): 0 plant
The grade of pesticide damage/plant: grade 3 ([3]; flumioxazin 60 g ai/ha (1×)): 0 plant
The grade of pesticide damage/plant: grade 0 ([3]; flumioxazin 240 g ai/ha (4×)): 19 plant
The grade of pesticide damage/plant: grade 1 ([3]; flumioxazin 240 g ai/ha (4×)): 5 plant
The grade of pesticide damage/plant: grade 2 ([3]; flumioxazin 240 g ai/ha (4×)): 0 plant
The grade of pesticide damage/plant: grade 3 ([3]; flumioxazin 240 g ai/ha (4×)): 0 plant
The grade of pesticide: grade 0 ([4]; sulfentrazone 450 g ai/ha (1×)): 24
The grade of pesticide: grade 1 ([4]; sulfentrazone 450 g ai/ha (1×)): 0
The grade of pesticide: grade 2 ([4]; sulfentrazone 450 g ai/ha (1×)): 0
The grade of pesticide: grade 3 ([4]; sulfentrazone 450 g ai/ha (1×)): 0
The grade of pesticide: grade 0 ([4]; sulfentrazone 900 g ai/ha (2×)): 19
The grade of pesticide: grade 1 ([4]; sulfentrazone 900 g ai/ha (2×)): 5
The grade of pesticide: grade 2 ([4]; sulfentrazone 900 g ai/ha (2×)): 0
The grade of pesticide: grade 3 ([4]; sulfentrazone 900 g ai/ha (2×)): 0

B2: PPO-ECA: nucleotide sequence encoding Escherichia coli protoporphyrinogen oxidase PPO-EC (SEQ ID NO:43), Arabidopsis thaliana/soybean common codon usage bias (nucleic acid)
DNA: ATGAAAACACTTATCTTGTTCTCAACTAGAGATGGACAGACAAGAGAGATTGCTTCTTACTTGGCTTCAGAACTTAAGGAGTTGGGTATTCAAGCTGATGTTGCTAATGTTCATAGAATTGAAGAGCCTCAGTGGGAAAACTATGATAGAGTTGTTATTGGAGCTTCTATTAGATATGGTCATTACCATTCAGCTTTTCAAGAGTTCGTTAAGAAACATGCTACTAGACTTAACTCTATGCCATCAGCTTTTTACTCTGTTAACTTGGTTGCTAGAAAGCCTGAGAAAAGAACTCCACAAACAAACTCTTACGCTAGAAAGTTCCTTATGAACTCACAGTGGAGACCTGATAGATGCGCTGTTATTGCTGGTGCTCTTAGATATCCAAGATACAGATGGTACGATAGATTCATGATCAAGTTGATTATGAAAATGTCTGGAGGTGAAACTGATACAAGAAAGGAGGTTGTTTACACAGATTGGGAACAGGTTGCTAATTTCGCTAGAGAGATTGCTCATCTTACTGATAAGCCAACATTGAAATGA
modifications: The nucleotide sequence of PPO-ECA
The grade of pesticide damage/plant: grade 0 ([5]; oxyfluorfen 360 g ai/ha (2×)): 16 plant
The grade of pesticide damage/plant: grade 1 ([5]; oxyfluorfen 360 g ai/ha (2×)): 0 plant
The grade of pesticide damage/plant: grade 2 ([5]; oxyfluorfen 360 g ai/ha (2×)): 0 plant
The grade of pesticide damage/plant: grade 3 ([5]; oxyfluorfen 360 g ai/ha (2×)): 0 plant
The grade of pesticide damage/plant: grade 0 ([5]; oxyfluorfen 720 g ai/ha (4×)): 13 plant
The grade of pesticide damage/plant: grade 1 ([5]; oxyfluorfen 720 g ai/ha (4×)): 3 plant
The grade of pesticide damage/plant: grade 2 ([5]; oxyfluorfen 720 g ai/ha (4×)): 0 plant
The grade of pesticide damage/plant: grade 3 ([5]; oxyfluorfen 720 g ai/ha (4×)): 0 plant
tolerance to oxyfluorfen ([5]; oxyfluorfen at four-fold field concentration (720 g ai/ha)): high-resistant tolerance
tolerance to oxyfluorfen ([5]; oxyfluorfen at two-fold field concentration (360 g ai/ha)): high-resistant tolerance
The grade of pesticide damage/plant: grade 0 ([6]; saflufenacil 50 g ai/ha (2×)): 9 plant
The grade of pesticide damage/plant: grade 1 ([6]; saflufenacil 50 g ai/ha (2×)): 7 plant
The grade of pesticide damage/plant: grade 2 ([6]; saflufenacil 50 g ai/ha (2×)): 0 plant
The grade of pesticide damage/plant: grade 3 ([6]; saflufenacil 50 g ai/ha (2×)): 0 plant
The grade of pesticide damage/plant: grade 0 ([6]; saflufenacil 100 g ai/ha (4×)): 8 plant
The grade of pesticide damage/plant: grade 1 ([6]; saflufenacil 100 g ai/ha (4×)): 3 plant
The grade of pesticide damage/plant: grade 2 ([6]; saflufenacil 100 g ai/ha (4×)): 5 plant
The grade of pesticide damage/plant: grade 3 ([6]; saflufenacil 100 g ai/ha (4×)): 0 plant
tolerance to saflufenacil ([6]; soybean, saflufenacil, compared with the control vector and CK): different extents of tolerance
The grade of pesticide damage/plant: grade 0 ([7]; flumioxazin 120 g ai/ha (2×)): 16 plant
The grade of pesticide damage/plant: grade 1 ([7]; flumioxazin 120 g ai/ha (2×)): 0 plant
The grade of pesticide damage/plant: grade 2 ([7]; flumioxazin 120 g ai/ha (2×)): 0 plant
The grade of pesticide damage/plant: grade 3 ([7]; flumioxazin 120 g ai/ha (2×)): 0 plant
The grade of pesticide damage/plant: grade 0 ([7]; flumioxazin 240 g ai/ha (4×)): 15 plant
The grade of pesticide damage/plant: grade 1 ([7]; flumioxazin 240 g ai/ha (4×)): 1 plant
The grade of pesticide damage/plant: grade 2 ([7]; flumioxazin 240 g ai/ha (4×)): 0 plant
The grade of pesticide damage/plant: grade 3 ([7]; flumioxazin 240 g ai/ha (4×)): 0 plant
tolerance to flumioxazin ([7]; soybean, flumioxazin at different concentrations (120 and 240 g ai/ha)): high-resistant tolerance
